Assay results: patent US20210261944, “Compositions and methods for ordered and continuous complementary DNA (cDNA) synthesis across non-continuous templates” (The Regents of the University of California, published 2021)

Assays:
[1] = biological target: T1, BomoC(ed) R2 RT (deltaN274, D996A) (Bombyx mori); test: primer for low-PCR cDNA library; Mg2+, 37C; settings: tags: N-terminal MBP, C-terminal 6xHis; partial duplex
T1 chain: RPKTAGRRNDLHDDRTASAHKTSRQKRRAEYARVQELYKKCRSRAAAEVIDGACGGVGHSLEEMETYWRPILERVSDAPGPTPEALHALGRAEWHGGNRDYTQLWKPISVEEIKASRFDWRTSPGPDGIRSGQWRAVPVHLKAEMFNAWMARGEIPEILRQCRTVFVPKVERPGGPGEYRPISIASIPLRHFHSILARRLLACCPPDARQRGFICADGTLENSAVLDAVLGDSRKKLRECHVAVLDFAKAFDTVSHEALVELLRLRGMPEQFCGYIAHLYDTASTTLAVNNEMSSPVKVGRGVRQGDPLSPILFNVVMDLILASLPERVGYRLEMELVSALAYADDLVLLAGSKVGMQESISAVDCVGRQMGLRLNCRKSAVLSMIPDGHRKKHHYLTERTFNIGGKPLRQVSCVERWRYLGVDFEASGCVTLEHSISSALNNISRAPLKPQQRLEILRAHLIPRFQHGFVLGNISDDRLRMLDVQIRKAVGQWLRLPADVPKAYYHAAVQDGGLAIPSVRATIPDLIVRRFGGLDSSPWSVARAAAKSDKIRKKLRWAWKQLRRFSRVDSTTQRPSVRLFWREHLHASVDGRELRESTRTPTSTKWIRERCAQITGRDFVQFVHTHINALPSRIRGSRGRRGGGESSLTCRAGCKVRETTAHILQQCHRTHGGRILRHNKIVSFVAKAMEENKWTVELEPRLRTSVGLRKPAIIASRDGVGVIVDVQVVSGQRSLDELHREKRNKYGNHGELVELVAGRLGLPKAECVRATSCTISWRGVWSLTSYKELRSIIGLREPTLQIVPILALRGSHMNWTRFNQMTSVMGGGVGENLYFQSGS

[2] = biological target: T1, BomoC(ed) R2 RT (deltaN274, D996A); test: used as second (terminal) template in ordered template relay; Mg2+, 37C; settings: tags: N-terminal MBP, C-terminal 6xHis; partial duplex, 3' C
Description: (§1) FIG. 15B. Analysis of reaction products by denaturing PAGE and SYBR Gold staining using a template RNA pool of 963 equimolar miRNA sequences (miRXplore). The full-length cDNA library (labeled cDNA+adaptor template) and some cDNA product from copying of the miRNA template only (labeled cDNA) are the predominant products. Excess adaptor primer and adaptor template are also stained. “No enz” is the no enzyme control. Lane+/− indicates addition of RNase A after product denaturation, which removes the non-extended strand of the primer duplex and truncates the ˜70 nt 3′ adaptor template. The library was sequenced with results shown in comparison to a low-cycle-PCR library in FIG. 16B.
(§2) Typical assays for cDNA synthesis by processive use of multiple template molecules (i.e., serial template copying) used a DNA primer that was annealed in full or part to a second strand, usually RNA, to generate a primer 3′ end that was blunt duplex or a short 3′ overhang of defined sequence. Templates included chemically synthesized RNA or DNA oligonucleotides and/or RNAs purified after T7 RNA polymerase transcription; templates were also isolated from biological sources. Reaction conditions were typically 20 mM Tris-HCl pH 7.5, 150 mM KCl, 2 mM MgCl₂, 10% glycerol with incubations at room temperature or 37° C. […]

[3] = biological target: T1, BomoC(ed) R2 RT (deltaN274, D996A); test: primer extended across ddA-tailed miRNA pool; full-length cDNA library; Mg2+, 37C; enzyme named as modified R2 RT; settings: tags: N-terminal MBP, C-terminal 6xHis; partial duplex, +1T 3' overhang
Description: as §1, §2

B1: low-PCR adaptor primer duplex c5p(uni)/c5pt (DNA:RNA)
DNA: GTGACTGGAGTTCAGACGTGTGCTCTTCCGATCC
RNA: GAUCGGAAGAGCACACGUCUGAACUCCAGU
modifications: 3' C3 spacer on RNA strand
[1]
  binding result: binds

B2: no-PCR adaptor template partial duplex c3t(FL)/c3t_comp (mixed)
DNA: AATGATACGGCGACCACCGAGATCTACACCGCAGACGACACTCTTTCCCTACACGACGCTCTTCCGATCTC
RNA: GUGUAGAUCUCGGUGGUCGCCGUAUCAUU
modifications: 5' amino modifier C6, mixed DNA/ribonucleotides; complement 3' C3 spacer
[2]
  binding result: binds

B3: no-PCR adaptor primer partial duplex c5p(FL)/c5pt (DNA:RNA)
DNA: CAAGCAGAAGACGGCATACGAGATGACGAGAGGTGACTGGAGTTCAGACGTGTGCTCTTCCGATCT
RNA: B1 RNA
modifications: 3' C3 spacer on RNA strand
[3]
  binding result: binds
